The text below walks through data of article PMC9388093.

This data set concerns the target T1, rPfTPx-1 (thioredoxin peroxidase 1) (Plasmodium falciparum, UniProt Q8IL80 1-195).
T1 sequence: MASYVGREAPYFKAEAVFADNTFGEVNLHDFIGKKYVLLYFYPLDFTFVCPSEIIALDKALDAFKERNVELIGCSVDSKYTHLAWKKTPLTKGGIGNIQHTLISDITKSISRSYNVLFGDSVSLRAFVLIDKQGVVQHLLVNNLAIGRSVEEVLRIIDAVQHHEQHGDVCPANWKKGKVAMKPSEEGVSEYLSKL
Description: EMSA. (In EMSA bound probe runs differently from free probe, usually more slowly.)

With AUCACAUACAUAUACACAAACACUUAUACAUACACAUA (ssRNA) [IntPE (PE) RNA probe, fluorescent], the binding result is listed as “binds”.
